Test results from patent publication US20240325499A1, “FGF21 COMPOUND / GLP-1R AGONIST COMBINATIONS WITH OPTIMIZED ACTIVITY RATIO” (SANOFI, priority 2018, published 2024).

Target: human FGFR1c (FGF receptor 1c isoform) together with human beta-Klotho (KLB) (human) (UniProt P11362)
Test: cell-based or functional assay

Chain of mature human wild-type FGF21, FGF21(His29-Ser209) (Q9NSA1 29-209 L174P): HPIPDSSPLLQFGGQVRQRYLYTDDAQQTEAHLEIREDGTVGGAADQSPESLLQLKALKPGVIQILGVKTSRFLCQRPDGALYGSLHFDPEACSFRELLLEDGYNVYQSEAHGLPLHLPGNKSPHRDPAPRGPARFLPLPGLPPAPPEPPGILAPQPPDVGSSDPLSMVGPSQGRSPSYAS

pERK ICW EC50 (nmol/L): 0.18 nmol/L
pFGFR ICW EC50 (nmol/L): 4.8 nmol/L
Substance: mature human wild-type FGF21, FGF21(His29-Ser209) (from UniProt Q9NSA1 29-209) (ligand)
